Measured values taken from the nanobody polyreactivity screen of Harvey et al. (2022).

Experiment: yeast display, Sf9 membrane polyspecificity reagent, FACS + sequencing; frameworks hold sequencing errors
How it was run: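 After 36–48 hours of galactose induction, yeast (Saccharomyces cerevisiae BJ5465) displaying a synthetic nanobody library were stained at 4 °C for 1 hour with 10% biotinylated, detergent-solubilized Sf9 membrane reagent. Streptavidin microbeads enriched the stained cells before FACS sorting into low and high (top ~1%) gates on anti-HA and streptavidin fluorescence. Each clone's polyreactivity label reflects its gate of origin.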

Sequence | polyreactivity (PSR sort gate)
QVQLVESGGGLVQAGGSLRLSCAASGRIRGNVMGWYRQAPGKERELVAAISKSGGSTYYADSVKGRFTISRDNAKNTVYLQMNSLKPEDTAVYYCAAAYGQYTSYYRFGSWGQGTQVTVSS | high polyreactivity
QVQLVESGGGLVQAGGSLRLSCAASGSTLRRYAMGWSRQAPGKERELVAAISGSGDSTYYADSVKGRFTISRDNAKNTVYLQMNSLKPEDTAVYYCNAVYAFNGYDYWGQGTQVTVSS | low polyreactivity
QVQLVESGGGLVQAGGSLRLSCAASGSIFLQNAMGWYRQAPGKERELVAAITNGGSTNYADSVKGRFTISRDNAKHTVYLQLNSLKPEDTAVYYCAAYPLYTGSYDRGGYWGQGTQVTVSS | low polyreactivity
QVQLVESGGGLVQAGGRLRLSCAASGFTFRGYAMGWYRQAPGKERELVAAITKRGGSTYYADSVKGRFTISRDNAKNTVYLQMNSLKPEDTAVYYCNKYAGQTTYDYWGQGTQVTVSS | high polyreactivity
QVQLVESGGGLVQAGGSLRLSCAASGFTFPANAMGWYRQAPGKERELVATITWSGGNTYYADSVKGRFTISRDNAKNTVYLQMNSLKPEDTAVYYCAKDYDPYHEQQSSEHDDYWGQGTQVTVSS | low polyreactivity
QVQLVESGGGLVQAGGSLRLSCAASGFTFADYAMGWYRQAPGKERELVAAINRSGGRTYYADSVKGRFTISRDNAKNTVYLQMNSLKPEDTAVYYCAAYGITYHNYDYWGQGTQVTVSS | high polyreactivity
QVQLVESGGGLVQAGGSLRLSCAASGSIFIWYAMGWYRQAPGKERELVAAITSSGSTNYADSVKGRFTISRDNAKNTVYLQMNSLKPEDTAVYYCADEYTYYTYNLNYWGQGTQVTVSS | low polyreactivity
QVQLVESGGGLVQAGGSLRLSCAASGSIFRWYAMGWYRQAPGKERELVAGISSTGGSTYYADSVKGRFTISRDNAKNTVYLQMNSLKPEDTAVLYCAVVSYPSAFRRYNYWGQGTQVTVSS | high polyreactivity
QVQLVESGGGLVQAGGSLRLSCAASGIIFASNAMGWYRQAPGKERELVAAISRSGGRTYYADSVKGRFTISRDNAKNTVYLQMNSLKPEDTAVYYCNAVQFGATAYDYWGQGTQVTVSS | high polyreactivity
QVQLVESGGGLVQAGGSLRLSCAASGSTFGYYTMGWYRQAPGKERELVASISWSGASTHYADSVKGRFTISRDNAKNTVYLPMNRLKPEDTAVYYCAADSYPAYLGFVGFDYWGQGTQVTVSS | low polyreactivity
QVQLVESGGALVQAGGSLRLSCAASGIILYYYAMGWYRQAPGKERELVAAISSGGNTYYADSVKGRFTISRDNAKNTVYLQMNSLKPEDTAVYYCAAVTVIGGEYDYWGQGTQVTVSS | low polyreactivity
QVQLVESWGVLVQAGGSLRLSCAASGSIFYYYVMGWYRQAPWKERELVAAISYGGGTNYADSVKERFTISRDNAKNTVYLQMISLKPEDTAVYYCNVVTYRRFDYWGQGTQVTVSS | low polyreactivity
QVQLVESGGGLVQAGGSLRLSCAASGSNFLFNAMGWYRQAPGKERELVAAINRDDSTYYADSVKGRFTISRDNAKNTVYLQMNSLKPEDTAVYYCARDYRYTIPYDYWGQGTQVNVSS | low polyreactivity
QVQVVESGGGLVQAGGSLRLSCAASGSIFDRNAMGWYRKAPGKERELVAGISRSGGSTNYADSVKGRFTISRDNAKNPVYLQMNSLNPEDTAVYYCAASRVVWVGRPWYQVRGDYWGQGTQVTVSS | high polyreactivity
KDQLVESGGGLVQAGGSLRLSSAASGIRFYVHSMGWYRQAPGKERELDASITSSGGSTYYADSVKGRFTISRDKATNSVYLQMNSLKPEDTAVYYCNKERWPVTYREYDYWGQGTQVTVSS | low polyreactivity
QVQLVESGGGLVQAGGSLRLSCAASGSTFQLYAMGWYRQAPGKERELVAGISRDGSTYYADSVKGRFTISRDNAKNTVYLQMNSLKPEDTAVYYCAAKYYGNKRDLYYWGQGTQVTVSS | low polyreactivity
QVQLVESGGGLVQAGGSLRLSCAASGSTIYDNAMGWYRQAPGKERELVAAITWSVGRTYYADSVKGRFTISRDNAKNTVYLQMNSLKPEDTAVYYCAARSQDRSYFQVFVSDTPYNYWGQGTQVTVSS | low polyreactivity
